Data: PMC12439145

Experiments:
Test in all cases: flow cytometry
Conditions in all cases: apparent Kd on cells; SPR at 25 C, His-KIT on CM5 chip, 50 mM NaOH regeneration; flow cytometry with 250 nM Cy5-aptamer in binding buffer with 1 mg/ml BSA and 1 mM yeast tRNA; salt …
[1] = molecular target: KIT on GIST-T1 cells (human (GIST-T1)) (UniProt P10721)
[2] = molecular target: KIT on GIST-430 cells (human (GIST-430)) (UniProt P10721)
[3] = molecular target: KIT on GIST-430/654 cells (human (GIST-430/654)) (UniProt P10721)
Sequence of KIT on GIST-430/654 cells (human (GIST-430/654)) (P10721 26-976): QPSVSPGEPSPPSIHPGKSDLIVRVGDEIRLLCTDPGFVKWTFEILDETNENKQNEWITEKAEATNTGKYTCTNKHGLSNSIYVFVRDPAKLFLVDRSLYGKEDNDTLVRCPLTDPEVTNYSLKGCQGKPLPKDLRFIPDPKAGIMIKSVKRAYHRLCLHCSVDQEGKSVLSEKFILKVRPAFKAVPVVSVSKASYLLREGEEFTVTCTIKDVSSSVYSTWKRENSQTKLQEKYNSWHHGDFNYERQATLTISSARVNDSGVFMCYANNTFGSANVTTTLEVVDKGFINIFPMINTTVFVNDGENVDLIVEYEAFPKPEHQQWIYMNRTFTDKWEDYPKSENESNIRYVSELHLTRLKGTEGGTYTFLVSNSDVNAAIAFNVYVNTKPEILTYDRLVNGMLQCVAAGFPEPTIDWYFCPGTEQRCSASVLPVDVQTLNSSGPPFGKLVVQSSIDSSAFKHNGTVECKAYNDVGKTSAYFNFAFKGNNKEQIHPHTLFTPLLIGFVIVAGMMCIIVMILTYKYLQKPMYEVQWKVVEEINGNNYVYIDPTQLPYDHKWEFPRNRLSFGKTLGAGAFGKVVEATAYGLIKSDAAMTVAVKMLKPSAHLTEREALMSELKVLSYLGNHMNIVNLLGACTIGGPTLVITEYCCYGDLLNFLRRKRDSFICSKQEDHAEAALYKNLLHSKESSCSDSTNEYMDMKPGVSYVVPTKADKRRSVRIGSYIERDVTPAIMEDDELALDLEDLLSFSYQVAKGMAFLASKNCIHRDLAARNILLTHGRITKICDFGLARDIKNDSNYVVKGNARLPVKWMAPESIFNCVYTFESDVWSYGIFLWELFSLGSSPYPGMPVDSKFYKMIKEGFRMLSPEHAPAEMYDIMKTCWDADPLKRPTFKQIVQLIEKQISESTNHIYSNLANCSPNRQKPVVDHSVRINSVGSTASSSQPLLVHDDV

Sequence of KIT on GIST-T1 cells (human (GIST-T1)) (P10721 26-976): as above
Sequence of KIT on GIST-430 cells (human (GIST-430)) (P10721 26-976): as above

## ATTCAAGGGGCCGGGGCAAGGGGGGGGTACCGTGGTAGGACATAGT [KIT-d]
[1]
  Kd: 76 nM
[2]
  Kd: 41.6 nM
[3]
  Kd: 109 nM
